Reference: paper PMC2606918 (Molecular pharmacology, 2008)
Blank lines part the entries; values can stand above or below the molecule they belong to.

What was measured:
[1] = biological target: T1, GST-D2-IC3 (third intracellular loop of the rat dopamine D2L receptor) (Rattus norvegicus, UniProt P61169); experiment: GST pull-down binding of purified arrestin to GST-D2-IC3
T1 sequence (P61169 211-371): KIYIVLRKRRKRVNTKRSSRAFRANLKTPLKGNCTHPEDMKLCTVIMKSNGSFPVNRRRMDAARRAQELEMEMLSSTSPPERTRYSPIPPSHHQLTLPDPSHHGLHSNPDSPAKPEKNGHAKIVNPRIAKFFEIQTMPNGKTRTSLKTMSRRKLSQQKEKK

[2] = biological target: T2, GST-D3-IC3 (third intracellular loop of the rat dopamine D3 receptor) (Rattus norvegicus, UniProt P19020); experiment: GST pull-down binding of purified arrestin to GST-D3-IC3
T2 sequence (P19020 210-372): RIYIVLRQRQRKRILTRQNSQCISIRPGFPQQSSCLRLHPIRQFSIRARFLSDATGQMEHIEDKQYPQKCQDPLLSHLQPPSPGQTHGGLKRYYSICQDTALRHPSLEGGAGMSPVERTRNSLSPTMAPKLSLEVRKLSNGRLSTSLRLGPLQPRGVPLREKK

[3] = biological target: T3, D2-IC3ΔNT5 (Rattus norvegicus, UniProt P61169); experiment: GST pull-down binding of arrestin3 to D2-IC3ΔNT5; details: versus D2-IC3; 400 ng fusion protein, 100 ng arrestin3
T3 sequence (P61169 216-371 limits assumed): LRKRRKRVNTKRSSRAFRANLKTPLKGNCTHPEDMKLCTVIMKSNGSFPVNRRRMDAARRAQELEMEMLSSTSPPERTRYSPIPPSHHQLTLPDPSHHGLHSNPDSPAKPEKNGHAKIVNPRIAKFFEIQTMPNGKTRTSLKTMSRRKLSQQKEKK

[4] = biological target: T4, D2-IC3ΔNT10 (Rattus norvegicus, UniProt P61169); experiment: GST pull-down binding of arrestin3 to D2-IC3ΔNT10; details: versus D2-IC3; 400 ng fusion protein, 100 ng arrestin3
T4 sequence (P61169 221-371 limits assumed): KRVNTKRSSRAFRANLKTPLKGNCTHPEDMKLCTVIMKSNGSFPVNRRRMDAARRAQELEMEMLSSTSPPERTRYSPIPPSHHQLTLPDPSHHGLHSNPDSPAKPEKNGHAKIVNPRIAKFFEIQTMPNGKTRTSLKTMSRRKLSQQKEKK

[5] = biological target: wild type D2 receptor (Rattus norvegicus, UniProt P61169); details: PTX 50 ng/ml overnight prior to agonist treatment
Chain of wild type D2 receptor (P61169 whole entry): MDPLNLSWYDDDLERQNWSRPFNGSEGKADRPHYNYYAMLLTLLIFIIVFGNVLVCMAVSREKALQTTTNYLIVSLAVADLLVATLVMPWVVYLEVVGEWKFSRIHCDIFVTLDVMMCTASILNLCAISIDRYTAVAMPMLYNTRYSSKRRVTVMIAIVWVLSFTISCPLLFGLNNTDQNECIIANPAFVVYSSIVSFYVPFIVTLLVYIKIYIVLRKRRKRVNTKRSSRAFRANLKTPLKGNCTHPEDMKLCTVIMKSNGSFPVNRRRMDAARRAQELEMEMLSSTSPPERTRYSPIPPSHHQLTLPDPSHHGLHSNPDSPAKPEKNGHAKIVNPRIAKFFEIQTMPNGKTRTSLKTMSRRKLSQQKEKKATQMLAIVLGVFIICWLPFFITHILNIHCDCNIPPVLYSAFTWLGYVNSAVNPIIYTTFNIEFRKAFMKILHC

[6] = biological target: D2-A4 mutant receptor (Rattus norvegicus, UniProt P61169, I212A/I214A/V215A/Y213A); details: PTX 50 ng/ml overnight prior to agonist treatment
Chain of D2-A4 mutant receptor (P61169 whole entry I212A/Y213A/I214A/V215A): as the sequence (P61169 whole entry) above, with I212A, Y213A, I214A, V215A counted along it

[7] = biological target: purified bovine arrestin3 (bovine, UniProt P32120 1-420); experiment: pull-down
Chain of purified bovine arrestin3 (P32120 whole entry): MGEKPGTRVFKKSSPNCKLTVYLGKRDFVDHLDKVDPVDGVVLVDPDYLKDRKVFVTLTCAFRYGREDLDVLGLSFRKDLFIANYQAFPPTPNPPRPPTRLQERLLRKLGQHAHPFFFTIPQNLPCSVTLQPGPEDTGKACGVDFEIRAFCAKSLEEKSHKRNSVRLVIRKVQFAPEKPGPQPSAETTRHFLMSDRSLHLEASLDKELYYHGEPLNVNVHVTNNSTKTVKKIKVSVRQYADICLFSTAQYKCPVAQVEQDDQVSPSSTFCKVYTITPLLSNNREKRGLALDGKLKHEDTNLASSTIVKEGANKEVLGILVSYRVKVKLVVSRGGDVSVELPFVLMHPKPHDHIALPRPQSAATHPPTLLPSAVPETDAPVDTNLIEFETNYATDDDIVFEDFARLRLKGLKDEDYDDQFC

[8] = amount of arrestin3 bound to 300 ng of GST-IC3
[9] = rate of association, data not shown
[10] = saturation analysis, 300 ng GST-IC3, 30 min room temperature

- binding of arrestin2 ([1]; GST pull-down, in words): bound weakly
- binding of arrestin2 ([2]; GST pull-down, in words): bound weakly
Molecule: Arrestin2: purified bovine arrestin2, non-visual arrestin also termed β-arrestin 1

- Bmax [1, 8]: 10.1 ± 0.6 ng
- half-time for binding [1, 9]: approximately 2 min
- time at which binding approached equilibrium [1, 9]: ≤ 15 min
- Kd [1, 10]: 72 ± 14 nM
- Kd ([1]; summary for D2-like receptor IC3 (D2-IC3 and D3-IC3), GST pull-down): 70 to 80 nM
- Bmax [2, 8]: 10.2 ± 0.6 ng
- Kd [2, 10]: 79 ± 14 nM
- decrease of arrestin binding [3]: about 60%
- decrease of arrestin binding [4]: about 60%
Molecule: Arrestin3: purified bovine arrestin3, non-visual arrestin also termed β-arrestin 2

Molecule: pertussis toxin [PTX]
- effect of PTX on activation of ERKs [5]: greatly decreased
- effect of PTX on activation of ERKs [6]: greatly decreased

- Kd [7]: 79 nM
B1: GST-D3-IC3 (GST fusion of the third intracellular loop of the rat dopamine D3 receptor, amino acids 210-372) (domain or fragment, UniProt P19020 210-372, looked up)
chain: RIYIVLRQRQRKRILTRQNSQCISIRPGFPQQSSCLRLHPIRQFSIRARFLSDATGQMEHIEDKQYPQKCQDPLLSHLQPPSPGQTHGGLKRYYSICQDTALRHPSLEGGAGMSPVERTRNSLSPTMAPKLSLEVRKLSNGRLSTSLRLGPLQPRGVPLREKK

- Kd [7]: 72 nM
B2: GST-D2-IC3 (GST fusion of the third intracellular loop of the rat dopamine D2L receptor, amino acids 211-371) (domain or fragment, UniProt P61169 211-371, looked up)
chain: KIYIVLRKRRKRVNTKRSSRAFRANLKTPLKGNCTHPEDMKLCTVIMKSNGSFPVNRRRMDAARRAQELEMEMLSSTSPPERTRYSPIPPSHHQLTLPDPSHHGLHSNPDSPAKPEKNGHAKIVNPRIAKFFEIQTMPNGKTRTSLKTMSRRKLSQQKEKK
